Assay [1] addresses T1, human Claudin 3 (human, UniProt O15551 1-220).
T1 construct: forced expression in DG44 or Ba/F3 cells, or endogenous on MCF7 cells; four-transmembrane tight junction protein; also called hCLDN3; hCLN3
T1 sequence: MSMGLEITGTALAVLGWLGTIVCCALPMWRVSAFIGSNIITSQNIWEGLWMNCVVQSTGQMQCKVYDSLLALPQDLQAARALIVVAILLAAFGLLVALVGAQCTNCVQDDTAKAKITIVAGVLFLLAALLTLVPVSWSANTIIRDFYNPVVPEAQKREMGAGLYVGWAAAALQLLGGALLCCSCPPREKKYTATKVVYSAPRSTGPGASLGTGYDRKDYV
Put plainly: flow cytometry, hCLDN3/DG44 cells, 1 ug/mL antibody.

In assay [2] the target is T1, human Claudin 3. Put plainly: flow cytometry, hCLDN3/DG44 cells, 5 ug/mL antibody.
Assay [3] addresses T1, human Claudin 3. As to the kind of experiment: flow cytometry, hCLDN3/Ba/F3 cells, 2 ug/mL antibody. As to the method: (§1) A monoclonal antibody was added to the respective forced expression cells, and then incubated at 4° C. for 30 minutes. After incubation, the cells were washed once with a PBS solution containing 1% fetal bovine serum, then a 150-fold dilution of an FITC-goat anti-mouse IgG (H+L) antibody (Beckman Coulter) was added, and this was incubated at 4° C. for 30 minutes. The amount of antibodies bound per cell was measured using FACSCalibur, and the X geometric mean value, which is the geometric mean of the cell fluorescence intensity, was calculated using the accessory CellQuest Pro analysis software of FACSCalibur.
(§2) The cross reactivity for human Claudin 3, human Claudin 1, human Claudin 4, human Claudin 6, and mouse Claudin 3 forcedly expressed in Ba/F3 was evaluated using at a final antibody concentration of 2 μg/mL.

Assay [4] addresses T2, human Claudin 4 with C-terminal FLAG tag (human, UniProt O14493 1-209).
T2 construct: whole, on cells; forced expression in Ba/F3 cells; also called hCLDN4; hCLN4
T2 sequence (looked up): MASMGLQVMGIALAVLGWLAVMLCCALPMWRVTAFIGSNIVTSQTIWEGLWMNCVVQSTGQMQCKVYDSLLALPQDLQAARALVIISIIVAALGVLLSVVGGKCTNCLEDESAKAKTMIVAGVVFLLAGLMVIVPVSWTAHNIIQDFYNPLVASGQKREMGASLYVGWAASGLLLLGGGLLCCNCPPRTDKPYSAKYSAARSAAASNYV
As to the kind of experiment: flow cytometry, hCLDN4/Ba/F3 cells, 2 ug/mL antibody. The method, then:
as §1, §2

Assay [5] has as its target T3, human Claudin 6 with C-terminal FLAG tag (human, UniProt P56747 1-220).
T3 construct: whole, on cells; forced expression in Ba/F3 cells; also called hCLDN6; hCLN6
T3 sequence (looked up): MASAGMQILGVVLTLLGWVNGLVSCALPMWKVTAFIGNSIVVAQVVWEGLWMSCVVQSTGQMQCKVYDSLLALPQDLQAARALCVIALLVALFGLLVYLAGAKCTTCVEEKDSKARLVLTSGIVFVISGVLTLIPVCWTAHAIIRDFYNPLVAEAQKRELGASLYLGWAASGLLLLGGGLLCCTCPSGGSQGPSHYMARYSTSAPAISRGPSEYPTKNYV
Put plainly: flow cytometry, hCLDN6/Ba/F3 cells, 2 ug/mL antibody. As to the method: as §1, §2

The next assay deals with T4, mouse Claudin 3 (mouse, UniProt Q9Z0G9 1-219).
T4 construct: whole, on cells; also called mCLDN3; mCLN3
T4 sequence (looked up): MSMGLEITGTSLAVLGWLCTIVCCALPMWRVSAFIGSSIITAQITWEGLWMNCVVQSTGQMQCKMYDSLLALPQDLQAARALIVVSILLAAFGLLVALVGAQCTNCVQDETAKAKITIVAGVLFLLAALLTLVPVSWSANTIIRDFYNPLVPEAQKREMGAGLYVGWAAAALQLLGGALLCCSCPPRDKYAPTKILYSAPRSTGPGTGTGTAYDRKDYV
As to the kind of experiment: flow cytometry, mCLDN3/Ba/F3 cells, 2 ug/mL antibody. As to the method:
as §1, §2

In assay [6] the target is T1, human Claudin 3. Put plainly: flow cytometry, hCLDN3/DG44 cells, 0.1 ug/mL antibody.
For assay [7], the target named is T1, human Claudin 3. Put plainly: flow cytometry, MCF7 cells (endogenous Claudin 3), 1 ug/mL antibody. As to the method: as §1
(§3) The affinity of the antibodies to the MCF7 breast cancer cell line (ATCC, HTB-22), which endogenously expresses Claudin 3, was evaluated by the flow cytometry method.

The target in assay [8] is T1, human Claudin 3. As to the kind of experiment: flow cytometry, MCF7 cells (endogenous Claudin 3), 5 ug/mL antibody. As to the method: as §1, §3
In assay [9] the target is T5, human Claudin 1 with C-terminal FLAG tag (human, UniProt O95832 1-211).
T5 construct: whole, on cells; forced expression in Ba/F3 cells; also called hCLDN1; hCLN1
T5 sequence (looked up): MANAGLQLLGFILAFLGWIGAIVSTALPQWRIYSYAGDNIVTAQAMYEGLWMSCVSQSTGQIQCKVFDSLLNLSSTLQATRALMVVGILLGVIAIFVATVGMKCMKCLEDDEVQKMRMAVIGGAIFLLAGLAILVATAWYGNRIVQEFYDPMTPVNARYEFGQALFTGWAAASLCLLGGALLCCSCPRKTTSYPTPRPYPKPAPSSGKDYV
Put plainly: flow cytometry, hCLDN1/Ba/F3 cells, 2 ug/mL antibody. The method, then:
as §1, §2

B1: CDN35 (antibody, V domains shown)
VH: EVQLQQSGPELVKPGASVKMSCKASGYTFTDYYMNWVKQSHGKSLEWIGRVNPSNGGTSYNQKFKGKATLTVDKSLSTAYMQLNSLTSEDSAVYYCARGLAYYSNSFTYWGQGTLVTVSA
VL: KIVLTQSPASLAVSLRQRATISCRASESVDSYGNSFMHWYQQKPGQPPKLLIYRASNLESGVPARFSGSGSRTDFTLTIDPVEADDAATYYCQQNNEDPWTFGGGTKLEIKR
notes: mouse monoclonal, IgG2a/IgK
Take B1: the X geometric mean with human Claudin 3 [1] came to 869; with human Claudin 3 [2] it was 2300; with human Claudin 3 [3], 2150; in [4], 59; in assay [5] it was 36; with mouse Claudin 3, 1310. Further, the values for the X geometric mean in the assay with human Claudin 3 [6], with human Claudin 3 [7] and in the assay with human Claudin 3 [8] were 120, 176 and 380, respectively.

B2: CDN16 (antibody, mouse IgG2b, kappa, V domains shown)
VH: EVQLQQSGPELVKPGASVKMSCKASGYTFTDYYMNWVKQSHGKSLEWIGRVNPSNGGTSYNQKFKGKATLTVDKSLSTAYMQLNSLTSEDSAVYYCARGLAYYSNSFVYWGQGTLVTVSA
VL: KIVLTQSPASLAVSLRQRATISCRASESVDSYGNSFMHWYQQKPGQPPKLLIYRASNLESGVPARFSGSGSRTDFTLTIDPVEADDAATYYCQQNNEDPWTFGGGTKLEIKR
notes: mouse monoclonal, IgG2b/IgK
Regarding B2, the X geometric mean in the assay with human Claudin 3 [1] came to 928; with human Claudin 3 [2] it was 2480; with human Claudin 3 [3], 1980; in [4], 11; in assay [5] it was 9; with mouse Claudin 3, 1270. Further, the results for the X geometric mean with human Claudin 3 [6], with human Claudin 3 [7] and in the assay with human Claudin 3 [8] were 125, 125 and 361, respectively.

B3: CDN04 (antibody, mouse IgG1, kappa, V domains shown)
VH: EVQLQQSGPELVKPGASMKISCKASGYSFTGYTMNWMKQGHGKNLEWIGLINPYNGGTSYNQKFKDKATLTLDKSSSSAYMELLSLTSEDSAVYYCARGSYGSSYFDYWGQGTTLTVSS
VL: DIVMSQSPSSLAVSVGEKVTMSCKSSQSLLYGSNQKNYLAWYQQKPGQSPKLLIYWASTRESGVPDRFTGSGSGTDFTLTISSVKAEDLAVYYCQQYYNFPYTFGGGTKLEIKR
notes: mouse monoclonal, IgG1/IgK; also called CDN4
Take B3: the X geometric mean was determined as 180 with human Claudin 3 [1]; 667 in the assay with human Claudin 3 [2]; 11 in assay [9]; 366 with human Claudin 3 [3]; 14 in assay [4]; 9 in [5]. For the same molecule, the X geometric mean with mouse Claudin 3 stood at 16; with human Claudin 3 [6] it was 28; in the assay with human Claudin 3 [7], 47; in the assay with human Claudin 3 [8] it was 130.

B4: CDN28 (antibody, mouse IgG1, kappa, V domains shown)
VH: EVQLQQSGPELVKPGASVKISCKASGYSFTGYFMNWVKQSHGKSLEWLGRINPYNGDTFYNQKFKGKATLTVDKSSNTAHMELRSLTSEDSAVYYCARGDGYYVTSLAYWGQGTLVTVSA
VL: NIVMTQSPKSMSMSVGERVTLSCKASENVVSYVSWFQQKPEQSPKLLIYGASNRYTGVPDRFTGSGSATDFTLTISSVQAEDLADYYCGQSYSYPLTFGAGTKLELKR
notes: mouse monoclonal, IgG1/IgK
As to B4, the X geometric mean with human Claudin 3 [1] is 1450; in the assay with human Claudin 3 [2] it was 1990; in assay [9] it was 12; with human Claudin 3 [3], 1430; in assay [4], 27; in [5], 9. Also, the X geometric mean in the assay with human Claudin 3 [6] amounted to 275; in the assay with human Claudin 3 [7], 175; in the assay with human Claudin 3 [8] it was 186.

B5: CDN27 (antibody, V domains shown)
VH: EVQLQQSGPELVKPGASVKISCKASGYSFTGYFMNWVKQSHGKSLEWIGRINPYNGDTFYNQKFKGKATLTVDKSSSTAHMELRSLTSEDSAVYYCARSGDWYFDVWGAGTTVTVSS
VL: DIVLTQSPASLAVSLGQRATISCRASKSVSTSSYSYMHWYQQKPGQPPKLLIKFASYLESGVPARFSGSGSGTDFTLNIHPVEEEDAATYYCQHSREFPRTFGGGTKLEIKR
notes: mouse monoclonal, IgG2a/IgK
For B5, the X geometric mean was found to be 1790 with human Claudin 3 [1]; 2700 in the assay with human Claudin 3 [2]; 42 in assay [9]; 3340 in the assay with human Claudin 3 [3]; 302 in [4]; 25 in [5]. The X geometric mean with mouse Claudin 3 came out at 50; in the assay with human Claudin 3 [6] it was 308; in the assay with human Claudin 3 [7], 202; in the assay with human Claudin 3 [8], 310.

B6: CDN38 (antibody, V domains shown)
VH: EVQLQQSGPELVKPGASVKMSCKASGYSFTGYFMNWVKQSHGKSLEWIGRINPYNGDTFYNQKFKGKATLTVDKSSSTAHMELRSLTSEDSALYYCARSGNYVMDYWGQGTSVTVSS
VL: DIVLTQSPASLAVSLGQSVTISCRASESVEYYGTSLMQWYQQKPGQPPKLLIYGASNVESGVPARFSGSGSGTDFSLNIHPVEEDDIAMYFCQQSRKVPWTFGGGTKLEIKR
As for B6, the X geometric mean is 215 in the assay with human Claudin 3 [1]; 258 with human Claudin 3 [2]; 7 in assay [9]; 142 with human Claudin 3 [3]; 74 in assay [4]; 9 in assay [5]. The X geometric mean was found to be 115 with mouse Claudin 3, 207 with human Claudin 3 [6], 63 in the assay with human Claudin 3 [7] and 61 in the assay with human Claudin 3 [8].

For the origin of these results see patent US20100111852A1 (FORERUNNER PHARMA RESEARCH, published 2010).
